Test results published in patent publication US6232095.

Test system: Hmp1 (Ustilago maydis)
Test: competition

G/A mismatch 50-mer
binding signal (equal to C/T competitor at 75 nM): 1 fold

G/C homoduplex 50-mer
binding signal (4-fold more homoduplex needed than C/T competitor, exact homoduplex pair not stated): 4 fold

cruciform DNA 61-mer
binding signal (cruciform more effective competitor than C/T mismatch): 7.5 fold
